Results reported in publication PMC8238520 (2021).
Where no end group is shown, it is not given here. [ ]: non-standard residue; d: D form. pS = N[C@@H](COP(=O)(O)O)C(=O)O

B1: 14-3-3ζ dimer (natural protein)
chain: MDKNELVQKAKLAEQAERYDDMAACMKSVTEQGAELSNEERNLLSVAYKNVVGARRSSWRVVSSIEQKTEGAEKKQQMAREYREKIETELRDICNDVLSLLEKFLIPNASQAESKVFYLKMKGDYYRYLAEVAAGDDKKGIVDQSQQAYQEAFEISKKEMQPTHPIRLGLALNFSVFYYEILNSPEKACSLAKTAFDEAIAELDTLSEESYKDSTLIMQLLRDNLTLWTSDTQGDEAEAGEGGEN

Legend:
Assay in all cases: FP
[1] = biological target: B1
[2] = biological target: FAM-tagged PKCε pSer346/pSer350 phosphopeptide (UniProt P16054, phosphoserine at 346; phosphoserine at 350; FAM label (end not stated))
[3] = biological target: FAM-tagged PKCε pSer346 phosphopeptide (UniProt P16054, phosphoserine at 346; FAM label (end not stated))

Kd [1] [µM]	Kd [2] [µM]	Kd [3] [µM]	Binder
0.147	–	–	DRSK[pS]APT[pS]PCDQEIKELENNIRKAL[pS]FDNR (also: FAM label (end not given here)) [FAM-tagged PKCε pSer346/pSer350/pSer368 phosphopeptide]
0.03	–	–	DRSK[pS]APTSPCDQEIKELENNIRKAL[pS]FDNR (also: FAM label (end not given here)) [FAM-tagged PKCε pSer346/pSer368 phosphopeptide]
–	335	31.5	B1
